According to the DeepSol protein solubility set:

Test: soluble on expression in E. coli; label from the status in PepcDB or PDB records

For “MAKRKKKEVFDWEDEDQEEIIWVSKSEIKRDAEDLKQLGEKIVNLTKANLAKIPLDESLLDAIELAQRLQKEARRRQLQYIGKLFRGIDVEPIREALDKIENKHNQQQAMLHKIEKVRDELVEKGDVALTDLLNDYPNGDRQQLRNLIRSAQKELEQNKPSKAYREIYQMLKVLMLED”, which “soluble on expression in E. coli” value is on record?
Its value is “not soluble”.

Which “soluble on expression in E. coli” value does the source give for “MAKSLTFSTFSPNNTLKKNVIPIVLLHGWGLNSGVWQPLLELFHRNDESIYQLITIDLPGFGINSAVDIKPYSLANICHHIEQVIDQPAIYLGWSLGGLIATEMSLKYPEKVLASITVASSPYFVEQPTDNWPGIKENVLESFHKQLAQDTAKTISGFLKIQAMGSPHIRQDLKLITQLVMAHTLPSQQTLADSLALLSNSDLRLHLSKIKQPLLRLYGHNDSLVPKEVMEKISYLAPNSDQHLFADASHAPFISHLDDFYQVLVVWLDSHFNLEHHHHHH” here?
Its value is “not soluble”.

With “MAKTIFYFSYRKTEELHAKAKELKKITTDYGYELTDDYQKANVIISIGGDGAFLKSVRETGFRQDCLYAGIALTEQLGQYCDFHINQLDEIIKAAIEDRWLVRRYPTIYGTVNNTKAFYVLNEFNIRSSIIRTLTMDLYINDSHFETFRGDGMVISTPTGSTAYNKSVNGSIVDPLLPSMQVSELASINNNKFRTLGSSFILSPKRKLRIEIASEEGNNEFPMIGMDSEALSIQHVHEVNLEVGDRFINIIKLPKNSFWDKVKRNFLLEHHHHHH” as the sequence, how does the “soluble on expression in E. coli” value read?
The value was “soluble”.

For “MAKVCYFTGRKTVSANNRSHAMNKTKRVAKPNLQKVTVLIDGKPKKVWASARALKSGKVERVLEHHHHHH”, which “soluble on expression in E. coli” value is on record?
The value was “not soluble”.

For “MALANFDGPFDLLLQLIHSHKLDITEVALAQVTDEFIAYTKTLSSSAEDLDEVTEFLVVASTLLDLKAARLVPRGEVDSEEDLALLETRDLLFARLLQYRAYKQVADLFADWQRDAARAYPATLSLEEHHANLLPEVKIGKNADEFAELAAAVFRPKPDHVDTGHIHQVAVSVPEQAGRILNTLKVAGENTWVTFGALIADAELNMIVVGRFLALLELYKARAIGIEQPEPLQDMSVAWTGLDVDPAVVAASNWE”, which “soluble on expression in E. coli” value is on record?
Its value is “soluble”.

With “MALAQQLRSESDFEQLPDDVAVSANIADIEEKRGFTSHFVFVIEVKTKGGSKYLIYRRYRQFYALQSKLEERFGPESKNSPFTCSLPTLPAKVYMGAKQEIAETRIPALNAYMKNLLSLPVCVLMDPDVRIFFYQSAYDAEQVPQALRRLRPRTRKIKGVSPQGAIMDRMEAPRAEALFDFTGNSKLELSFKAGDVIFLLSKINKDWLEGTSQGATGIFPGSFVKILKDFPEDEDTTNWLRCYFYEDTGKTIKDIAVEEDLSSTPLFKDLLALMRREFQREDIALSYQDAEGDLVRLLSDEDVGLMVKQARGLPSQKRLFPWKLHVTQKDNYSVYNTVP” as the sequence, how does the “soluble on expression in E. coli” value read?
Its value is “soluble”.

With “MALINNRSKFSFFNKVRVLLKNILKPDESVEDVVDEHFRFTSSLSLDAPDGQIENLYQDEKDGKYHLTLFDNGLTGATGILPAAYTEWLIERKLRYNDDAPKAFMDMFDHRMYCLSYLAWQKMHLSGDENRRDNNVLNNVLLSLGGITPQTVSVTGLAYVAFYSQPVRSLAGLEQLLSLIHQIRVSINPFRGTFENTEPSEQGVLGNCLYTLGEGPVIGNVRWVVDSHFDVVLGPVDYRKAQELMPGKDSHYFIRQQIRSYIGDVLKFKIYVKIYPGNNDNQLNINNKLGFNLSLGSETENYKERCFCIF” as the sequence, how does the “soluble on expression in E. coli” value read?
Its value is “not soluble”.

Which “soluble on expression in E. coli” value does the source give for “MALMYPFHVAQPPLNWSEHLWVSEVSPAKESFITTICEHRQAQWDNQDLLRHLQDSVAILTREDQRHVNAVHAAANMPANP” here?
Its value is “not soluble”.

Which “soluble on expression in E. coli” value does the source give for “MALPLLPGNSFNRNVGKEKFHKSQHWGFCNNVMMLVSDEKPGIGGEPLLGQKIKPKCSIYPKGDGSDVPSWVAFDKQVLSFDAYLEEEVLDKSQTNYRIRYYKIYFYPEDDTIQVNEPEVKNSGLLQGTSIRRHRITLPPPDEDQFYTVYHFNVGTEVVFYGRTFKIYDCDAFTRNFLRKIGVKVNPPVQCPEDPYMKIRREVVEHVEPLRPYESLDTLKQFLQYHGKILCFFCLWDDSVSMFGDRRELILHYFLCDDTIEIKELLPHSSGRDALKMFLRRSKLPKNCPPRVYQPGQITDRAVLNSYGDFIKNQADGYLFDRYKLGKVDQEFYKDSDLSLGVTINVWGRKVLLYDCDEFTKSYYKSKYGIENFTSVSCKPPSPPPKIERKFPPYNGFGSEEDSLRNCIDLKPTPHRRNFKKFMEKDSYGSKSNILRFFAKLVTDKCVDLDRMFVISYYLGDDTISVFEPIERNSGIAGGMFLKRSRVKKPGQEVFKSELSEYIKAEELYIGVTVNVNGYLFRLLNADEYTLNYMEQNTDKYPFSNLKLALQKLKQEEGKSRELKQVFKAADSKHTNMVDYNTFRDILMSLTVGNLAEQEFVTIARHYRVPEGTCSDMDFLIALAHEKFKKNMFENFDTFIYSCVYEDREKKNVLPTKDIKRLCKSSRLPLSDDLLESLLSRFEDSEKQIDYKSFFSALNWRKNPVPELQPASYLKERCEDVWLGMPSPIPAKYIDYWTFLKDAFGLEEE” here?
Its value is “soluble”.

For “MALTCTDMSDAVAGSDAEGLTADAIVVGAGLAGLVAACELADRGLRVLILDQENRANVGGQAFWSFGGLFLVNSPEQRRLGIRDSHELALQDWLGTAAFDRPEDYWPEQWAHAYVDFAAGEKRSWLRARGLKIFRWWAGPSVVVTTRRGTATRCPVSTSPGVLGRLWSTYSCVSCVIAPRCALRTATRSTNLEHHHHHH”, which “soluble on expression in E. coli” value is on record?
Its value is “not soluble”.

For “MALVEFLMETLDGLKGTDIVHFDVRGKSSITDNMIICTGTSSRQVSAMADNLITECKKAGFETFGEEGKNTADWIVVDLGQAIVHIMQRDAREMYQLEKLWALEHHHHHH”, which “soluble on expression in E. coli” value is on record?
Its value is “not soluble”.

For “MAMAVPVSARPQSPAEGFYAINNQFQTNGPKGFSEIKILANEDMFLRMDLPGVPDEGGLSVYHNRSQETVVVFAKAPKVHTHDSTERRYQTMTGIGCSCCAISSITTHMSDGVFRVILSKTRIDPHRSPCTDPALTGPVLQPHPLAFPQPTMAYESKQLPNGKLFVRADMPGVPKENFTVSVTNGRVKVTGQAPAVSHDSSGRFYSGDVAMLSTPVDIPSRRIKTIAKNGVIRLLIPPF”, which “soluble on expression in E. coli” value is on record?
The value was “soluble”.

With “MAMDLRDPNVWISHLLENLPEEKLASALKDDNPDWEYIDGEIVKLGSLAHAQLDIPELQRRGLQLLASESKDFRLLAHLLRTLQHAGDPLLALHLLTLYVEHYWTVAAPQNMAHKKRFASQIIKRFETVLKAFHKTLPQRSAILCWVSWRNWRSAGSHITSRNWHRLPMIFLPCTSVRLIVRLLLRSPLRRPPVVHHKPPSRLKAA” as the sequence, how does the “soluble on expression in E. coli” value read?
The value was “not soluble”.

For “MANELTWHDVLAEEKQQPYFLNTLQTVASERQSGVTIYPPQKDVFNAFRFTELGDVKVVILGQDPYHGPGQAHGLAFSVRPGIAIPPSLLNMYKELENTIPGFTRPNHGYLESWARQGVLLLNTVLTVRAGQAHSHASLGWETFTDKVISLINQHREGVVFLLWGSHAQKKGAIIDKQRHHVLKAPQPSPLSAHRGFFGCNHFVLANQWLEQHGETPIDWMPVLPAESE”, which “soluble on expression in E. coli” value is on record?
The value was “soluble”.

For “MANHPRAGQPAQQSDLINVAQLTSQYYVLQPDAEDPAHAVKFGTSGHRGSSVRHSFNEAHILAIAQAIAEVRHQHGISGPCYVGKDTHALSEPAFISVLEVLTANGVDVVVQQDNGFTPTPAISHVILCHNAQGKALADGIVITPSHNPPEDGGIKYNPPNGGPADTNLTSVIEKRANQLLSQNLKGVKRQTLDKAWQSNHLREQDLLQPYVEGLVDVVDIPAIQQAGLKLGVDPLGGSGIAYWQRIAEYYKLDLTLVNNAIDQTFRFMHLDHDGVIRMDCSSESAMAGLLALRDKFDLAFANDPDYDRHGIVTPAGLMNPNHYLAVSINYLFQHRPQWGAGVAVGKTLVSSAMIDRVVADLGRKLVEVPVGFKWFVDGLHDGSFGFGGEESAGASFLRFNGTPWSTDKDGIIMCLLAAEITAVTGKDPQRHYDDLAQRFGAPSYNRIQAPATQAQKNALSRLSPEMVKANTLAGDPITARLTNAPGNGASIGGLKVMTENGWFAARPSGTEEAYKIYCESFLGAEHREKIEQEAVKIVSEVLAEAK”, which “soluble on expression in E. coli” value is on record?
The value was “not soluble”.

With “MANRIQEIALSDKNLGSKIKAVYKTERDIYVNGAPVRGRVFTASSEKQRDFEIFVPHLRNSQMLNGREEVKLIDPVARINVKRNNIGNSRSIDMVVYAKRLEVVGGNK” as the sequence, how does the “soluble on expression in E. coli” value read?
The value was “not soluble”.

For “MANSITADEIREQFSQAMSAMYQQEVPQYGTLLELVADVNLAVLENNPQLHEKMVNADELARLNVERHGAIRVGTAQELATLRRMFAIMGMYPVSYYDLSQAGVPVHSTAFRPIDDASLARNPFRVFTSLLRLELIENEILRQKAAEILRQRDIFTPRCRQLLEEYEQQGGFNETQAQEFVQEALETFRWHQSATVDEETYRALHNEHRLIADVVCFPGCHINHLTPRTLDIDRVQSMMPECGIEPKILIEGPPRREVPILLRQTSFKALEETVLFAGQKQGTHTARFGEIEQRGVALTPKGRQLYDDLLRNAGTGQDNLTHQMHLQETFRTFPDSEFLMRQQGLAWFRYRLTPSGEAHRQAIHPGDDPQPLIERGWVVAQPITYEDFLPVSAAGIFQSNLGNETQTRSHGNASREAFEQALGCPVLDEFQLYQEAEERSKRRCGLL”, which “soluble on expression in E. coli” value is on record?
The value was “not soluble”.

Which “soluble on expression in E. coli” value does the source give for “MANVEAIPGYLTATFPTLPIEIKDYVSAILKENSDEITSLDEVMDAVGEHLQASVENLCEVGAKNACQQLLKLLHGDNLPKAIKQQEATTKRLEQTVDMAAENQNFEALQSIWKVQTRDTPTTVDKKKLAKAEDRAAAKAEARADAPVERKKKKNEPSATASQAPIRDSGARGANSKDIKLESVDISIGTKQLLSCADVTMAFGRRYGLVGRNGIGKTTLLKMISSQQLKIPAGISMLSVEQEVEGDDTLVLDAVLMSDTKRQTLLDREKTLQSRINKDNINDAEKTKWNDELSKLYIEMEALQLDKAPARASSLLYGLGFTPDEQKRPTKEFSGGWRMRVALARALFVKPDLLLLDEPTNMLDMRAVYWLEGHLQGWEGTILTVSHDRKFLNEICTDIVHLHTRRLDHYKGNYDQFEKTMKEKLTQQQREYESQQQLRQHTQEFIDKFRYNAKRAPMVQSRIKMLEKLPVLLPVELESDIHFKFPECEVLSNPVLQLDEVSFRYNEDSPYLFRKLNLGTHANSRICIVGENGAGKTTLLKLLLDDLQPSVGLRNVNRRIRIAYFTQHHVDQLDMETSAIEVLMKNHPGKTQEDYRAALGRFGLAGDMALQSVETLSGGQKSRLAFANLALMQPNYLILDEPTNHLDVETVEALGKALNVFNGGVVLVSHDEQLIELVCKELWVVKDRMVTTLEGGLEEYRKQVYKQLQLTA” here?
Its value is “not soluble”.

For “MAPASILCCDTDNRRPQMKLTGGCYCGALRYEAEGEPMLKAQCHCRACQSYSGGAPNLFMVMPAAGFRYVKGTPKSFRLEDRPDRVTRDFCATCGTGVASHRPGLPAVILKIGTLDDPALFKGPRAAVFAAEKQAFHIIPEGVHAFDGLPPT”, which “soluble on expression in E. coli” value is on record?
The value was “not soluble”.

Which “soluble on expression in E. coli” value does the source give for “MAPATERNRDAILAVLKDELRSPGTVLEIASGTGEHGAYFAPQLPDYFWQPSDPNEESRRSIAAWRSHVNAPNLGEAIAIDVTRSDWVESVPEFPQPVVAIAAINLIHISPWEATLGLFAGAKQLLSVDGLIYLYGAYKRGGQHTAPSNEAFDASLQARNPAWGARNLEDVTAVAEAEQFRLDRIVEMPSNNLSVCFRAIALEHHHHHH” here?
The value was “not soluble”.

For “MAPSCLKMAHMRLLLTSFGHDHIRDFVRGTVAYIPDATRLFADSPEAAPFMETERNMLREHGLSIRELPISTSTPEEVDRVLGEVDGVYVAGGETFDLMWLLRSTGNDEVLIKHVRAGLPYIGTSAGAVIAGPSIEPISFLDSPDVAPNLSDYSGLGLCEHVVVPHAGGTIPQFPIDVFAETVRTYGAEFPLVLLKDGQALLIDDHGVHLILEHHHHHH”, which “soluble on expression in E. coli” value is on record?
The value was “soluble”.
